Reference: publication PMC3755337
Values belong to the substance of their own block, whether it stands above or below them.

Columns and labels:
Assay in all cases: SEC; purified mutant TNFα alone on a size exclusion column; single peak; column and buffer not given
[1] = molecular target: mTNFα mutant 1, [Q6R, N7T, S8P]mTNF-α(1–156) (mouse)
[2] = molecular target: mTNFα mutant 2, [Q6R, N7T, S8P, A52S, D53E]mTNF-α(1–156) (mouse)
[3] = molecular target: mTNFα mutant 3, [S30N, Q31R]mTNF-α(1–156) (mouse)
[4] = molecular target: mTNFα mutant 4, [D71S, Y72H, ins 71_T_72]mTNF-α(1–156) (mouse)
[5] = molecular target: mTNFα mutant 5, [P101Q, K102R, D103E, L110A]mTNF-α(1–156) (mouse)
[6] = molecular target: mTNFα mutant 6, D71S, Y72H, ins 71_T_72, P101Q, K102R,D103E,L110A]mTNF-α(1–156) (mouse)
[7] = molecular target: mTNFα mutant 7, [E88T]mTNF-α(1–156) (mouse)
[8] = molecular target: mTNFα mutant 8, [L137R, K139D]mTNF-α(1–156) (mouse)
[9] = molecular target: mTNFα mutant 9, [H20P, V22A, E24G, E27Q]mTNF-α(1–156) (mouse)
[10] = molecular target: mTNFα mutant 10, [H20P, V22A, E24G, E27Q, S30N, Q31R, L137R, K139D]mTNF-α(1–156) (mouse)
[11] = molecular target: mTNFα mutant 11, [Q130R]mTNF-α(1–156) (mouse)
[12] = molecular target: mTNFα mutant 12, [D42E, K44R, F82I, I84V, E88T, Q130R]mTNF-α(1–156) (mouse)
[13] = molecular target: mTNFα mutant 13, [M41V, V58I, V79I, V96I, V135I, V153I]mTNF-α(1–156) (mouse)
[14] = molecular target: mTNFα mutant 14, [H20P, V22A, E24G, E27Q, M41V, V58I, V79I, V96I, V135I, V153I]mTNF-α(1–156) (mouse)
[15] = molecular target: mTNFα mutant 15, [H20P, V22A, E24G, E27Q, S30N, Q31R, M41V, V58I, V79I, V96I, V135I, L137R, K139D, V153I]mTNF-α(1–156) (mouse)
[16] = molecular target: mTNFα mutant 16, [L1V, Q6R, N7T, S8P, H20P, V22A, E24G, E27Q, S30N, Q31R, M41V, V58I, V79I, V96I, V135I, L137R, K139D, V153I]mTNF-α(1–156) (mouse)
[17] = molecular target: mTNFα mutant 17, [L1V, Q6R, N7T, S8P, H20P, V22A, E24G, E27Q, S30N, Q31R, M41V, D42E, K44R, A52S, D53E, V58I, V79I, F82I, I84V, E88T, V96I, Q130R, V135I, L137R, K139D, V153I]mTNF-α(1–156) (mouse)
[18] = molecular target: mTNFα mutant 18, [L1V, Q6R, N7T, S8P, H20P, V22A, E24G, E27Q, S30N, Q31R, M41V, V58I, V79I, V96I, V135I, V153I]mTNF-α(1–156) (mouse)
[19] = molecular target: mTNFα mutant 19, [L1V, Q6R, N7T, S8P, H20P, V22A, E24G, E27Q, S30N, Q31R, M41V, D42E, K44R, V58I, V79I, V96I, P101Q, K102R, D103E, L110A, V135I, L137R, K139D, V153I]mTNF-α(1–156) (mouse)
[20] = molecular target: mTNFα mutant 20, [L1V, Q6R, N7T, S8P, H20P, V22A, E24G, E27Q, S30N, Q31R, M41V, D42E, K44R, V58I, D71S, Y72H, ins 71_T_72, V79I, V96I, P101Q, K102R, D103E, L110A, V135I, L137R, K139D, V153I]mTNF-α(1–156) (mouse)

Substance: mTNFα mutant 2, [Q6R, N7T, S8P, A52S, D53E]mTNF-α(1–156) (natural protein)
stoichiometry N [2]: 3

Substance: mTNFα mutant 3, [S30N, Q31R]mTNF-α(1–156) (natural protein)
stoichiometry N [3]: 3

Substance: mTNFα mutant 4, [D71S, Y72H, ins 71_T_72]mTNF-α(1–156) (natural protein)
stoichiometry N [4]: 3

Substance: mTNFα mutant 5, [P101Q, K102R, D103E, L110A]mTNF-α(1–156) (natural protein)
stoichiometry N [5]: 3

Substance: mTNFα mutant 7, [E88T]mTNF-α(1–156) (natural protein)
stoichiometry N [7]: 3

Substance: mTNFα mutant 8, [L137R, K139D]mTNF-α(1–156) (natural protein)
stoichiometry N [8]: 3

Substance: mTNFα mutant 9, [H20P, V22A, E24G, E27Q]mTNF-α(1–156) (natural protein)
stoichiometry N [9]: 3

Substance: mTNFα mutant 15, [H20P, V22A, E24G, E27Q, S30N, Q31R, M41V, V58I, V79I, V96I, V135I, L137R, K139D, V153I]mTNF-α(1–156) (natural protein)
stoichiometry N [15]: 3

Substance: mTNFα mutant 19, [L1V, Q6R, N7T, S8P, H20P, V22A, E24G, E27Q, S30N, Q31R, M41V, D42E, K44R, V58I, V79I, V96I, P101Q, K102R, D103E, L110A, V135I, L137R, K139D, V153I]mTNF-α(1–156) (natural protein)
stoichiometry N [19]: 3

Other lines, results leading:

stoichiometry N [1]: 3
Substance: mTNFα mutant 1, [Q6R, N7T, S8P]mTNF-α(1–156) (natural protein)

stoichiometry N [6]: 3
Substance: mTNFα mutant 6, D71S, Y72H, ins 71_T_72, P101Q, K102R,D103E,L110A]mTNF-α(1–156) (natural protein)

stoichiometry N [10]: 3
Substance: mTNFα mutant 10, [H20P, V22A, E24G, E27Q, S30N, Q31R, L137R, K139D]mTNF-α(1–156) (natural protein)

stoichiometry N [11]: 3
Substance: mTNFα mutant 11, [Q130R]mTNF-α(1–156) (natural protein)

stoichiometry N [12]: 3
Substance: mTNFα mutant 12, [D42E, K44R, F82I, I84V, E88T, Q130R]mTNF-α(1–156) (natural protein)

stoichiometry N [13]: 3
Substance: mTNFα mutant 13, [M41V, V58I, V79I, V96I, V135I, V153I]mTNF-α(1–156) (natural protein)

stoichiometry N [14]: 3
Substance: mTNFα mutant 14, [H20P, V22A, E24G, E27Q, M41V, V58I, V79I, V96I, V135I, V153I]mTNF-α(1–156) (natural protein)

stoichiometry N [16]: 3
Substance: mTNFα mutant 16, [L1V, Q6R, N7T, S8P, H20P, V22A, E24G, E27Q, S30N, Q31R, M41V, V58I, V79I, V96I, V135I, L137R, K139D, V153I]mTNF-α(1–156) (natural protein)

stoichiometry N [17]: 3
Substance: mTNFα mutant 17, [L1V, Q6R, N7T, S8P, H20P, V22A, E24G, E27Q, S30N, Q31R, M41V, D42E, K44R, A52S, D53E, V58I, V79I, F82I, I84V, E88T, V96I, Q130R, V135I, L137R, K139D, V153I]mTNF-α(1–156) (natural protein)

stoichiometry N [18]: 3
Substance: mTNFα mutant 18, [L1V, Q6R, N7T, S8P, H20P, V22A, E24G, E27Q, S30N, Q31R, M41V, V58I, V79I, V96I, V135I, V153I]mTNF-α(1–156) (natural protein)

stoichiometry N [20]: 3
Substance: mTNFα mutant 20, [L1V, Q6R, N7T, S8P, H20P, V22A, E24G, E27Q, S30N, Q31R, M41V, D42E, K44R, V58I, D71S, Y72H, ins 71_T_72, V79I, V96I, P101Q, K102R, D103E, L110A, V135I, L137R, K139D, V153I]mTNF-α(1–156) (natural protein)
